From article PMC10325916, “DNA strand asymmetry generated by CpG hemimethylation has opposing effects on CTCF binding”
Values joined by “and” are separate entries in the source; they are usually repeats but may differ in a detail not shown here. Equal values may be shown once.

B1: Negative control (dsDNA)
DNA 1: AAGACGATTCTGGATTGTA
DNA 2: TACAATCCAGAATCGTCTT
B2: H19 unmethylated (dsDNA)
DNA 1: GTTGCCGCGTGGTGGCAG
DNA 2: CTGCCACCACGCGGCAAC
B3: Cen-CTCF motif C2 + opposite C2 5mC (dsDNA)
DNA 1: AGGCCGCCAGAGAGCGCCC
DNA 2: GGGCGCTCTCTGGCGGCCT
modifications: 5mC motif C2 and opposite C2
B4: Cen-CTCF motif C12 + opposite C2 5mC (dsDNA)
DNA 1: AGGCCGCCAGAGAGCGCCC
DNA 2: GGGCGCTCTCTGGCGGCCT
modifications: 5mC motif C12 and opposite C2
B5: Cen-CTCF full methylation (dsDNA)
DNA 1: AGGCCGCCAGAGAGCGCCC
DNA 2: GGGCGCTCTCTGGCGGCCT
modifications: 5mC at C2 and C12 CpGs, both strands
B6: Cen-CTCF motif C2 5mC (dsDNA)
DNA 1: AGGCCGCCAGAGAGCGCCC
DNA 2: GGGCGCTCTCTGGCGGCCT
modifications: 5mC motif strand C2
B7: Cen-CTCF motif C12 5mC (dsDNA)
DNA 1: AGGCCGCCAGAGAGCGCCC
DNA 2: GGGCGCTCTCTGGCGGCCT
modifications: 5mC motif strand C12
B8: Cen-CTCF motif C2 + opposite C12 5mC (dsDNA)
DNA 1: AGGCCGCCAGAGAGCGCCC
DNA 2: GGGCGCTCTCTGGCGGCCT
modifications: 5mC motif C2 and opposite C12
B9: Cen-CTCF opposite C2 5mC (dsDNA)
DNA 1: AGGCCGCCAGAGAGCGCCC
DNA 2: GGGCGCTCTCTGGCGGCCT
modifications: 5mC opposite strand C2
B10: Cen-CTCF motif C12 + opposite C12 5mC (dsDNA)
DNA 1: AGGCCGCCAGAGAGCGCCC
DNA 2: GGGCGCTCTCTGGCGGCCT
modifications: 5mC motif C12 and opposite C12
B11: H19 full methylation (dsDNA)
DNA 1: GTTGCCGCGTGGTGGCAG
DNA 2: CTGCCACCACGCGGCAAC
modifications: 5mC C2 both strands
B12: H19 motif C2 5mC (dsDNA)
DNA 1: GTTGCCGCGTGGTGGCAG
DNA 2: CTGCCACCACGCGGCAAC
modifications: 5mC motif strand C2
B13: Cen-CTCF opposite C2+C12 5mC (dsDNA)
DNA 1: AGGCCGCCAGAGAGCGCCC
DNA 2: GGGCGCTCTCTGGCGGCCT
modifications: 5mC opposite strand C2, C12
B14: Cen-CTCF unmethylated (dsDNA)
DNA 1: AGGCCGCCAGAGAGCGCCC
DNA 2: GGGCGCTCTCTGGCGGCCT
B15: Cen-CTCF motif C2+C12 5mC (dsDNA)
DNA 1: AGGCCGCCAGAGAGCGCCC
DNA 2: GGGCGCTCTCTGGCGGCCT
modifications: 5mC motif strand C2, C12
B16: Telo-CTCF (dsDNA)
DNA 1: TCCCCACCAGGGGGAGCAC
DNA 2: GTGCTCCCCCTGGTGGGGA
B17: H19 opposite C2 5mC (dsDNA)
DNA 1: GTTGCCGCGTGGTGGCAG
DNA 2: CTGCCACCACGCGGCAAC
modifications: 5mC opposite strand C2
B18: Cen-CTCF opposite C12 5mC (dsDNA)
DNA 1: AGGCCGCCAGAGAGCGCCC
DNA 2: GGGCGCTCTCTGGCGGCCT
modifications: 5mC opposite strand C12
B19: H19 full 5hmC (dsDNA)
DNA 1: GTTGCCGCGTGGTGGCAG
DNA 2: CTGCCACCACGCGGCAAC
modifications: 5hmC C2 both strands
B20: H19 motif strand 5hmC (dsDNA)
DNA 1: GTTGCCGCGTGGTGGCAG
DNA 2: CTGCCACCACGCGGCAAC
modifications: 5hmC motif strand C2
B21: Cen-CTCF motif strand 5hmC (dsDNA)
DNA 1: AGGCCGCCAGAGAGCGCCC
DNA 2: GGGCGCTCTCTGGCGGCCT
modifications: 5hmC motif strand
B22: Cen-CTCF full 5hmC (dsDNA)
DNA 1: AGGCCGCCAGAGAGCGCCC
DNA 2: GGGCGCTCTCTGGCGGCCT
modifications: 5hmC at CpGs, both strands

target: T1, CTCF ZF1-11 (human, UniProt P49711 266-577); assay: fluorescence polarization; 20 mM Tris-HCl pH 7.5, 300 mM NaCl, 5% glycerol, 0.5 mM TCEP, 25 C, 15 min, 5 nM FAM-oligo; settings: protein: recombinant; tags: 6xHis-SUMO, used tagged and untagged (no change in results); label: FAM
T1 sequence: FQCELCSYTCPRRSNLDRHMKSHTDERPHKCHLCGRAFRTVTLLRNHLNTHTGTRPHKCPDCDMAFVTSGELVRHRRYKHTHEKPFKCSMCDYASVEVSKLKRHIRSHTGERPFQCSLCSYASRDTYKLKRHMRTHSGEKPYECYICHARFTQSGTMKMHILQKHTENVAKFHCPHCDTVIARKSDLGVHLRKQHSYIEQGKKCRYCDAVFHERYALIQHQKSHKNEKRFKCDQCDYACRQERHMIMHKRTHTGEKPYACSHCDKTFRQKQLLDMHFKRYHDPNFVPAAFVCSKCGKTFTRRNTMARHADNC

Binder | Kd [nM]
B1 | ~1000

same assay, conditions: protein: recombinant; tags: 6xHis-SUMO, used tagged and untagged (no change in results); label: FAM on motif strand

Binder | Kd
B2 | 149 nM and ~200 nM
B3 | 799 ± 110 nM
B4 | 243 ± 18 nM
B5 | 1080 ± 217 nM
B6 | 949 ± 165 nM
B7 | 428 ± 37 nM
B8 | 839 ± 74 nM
B9 | 81 ± 5 nM
B10 | 303 ± 28 nM
B11 | 294 nM
B12 | 346 nM
B13 | 37 ± 2 nM
B14 | 163 nM and ~200 nM
B15 | 1030 ± 114 nM
B16 | ~5 nM
B17 | 89 nM
B18 | 77 ± 5 nM

target: T2, CTCF FL (human, UniProt P49711 1-727); assay: as above; settings: protein: recombinant; tags: 6xHis-SUMO, used tagged or removed (untagged for FL); label: FAM on motif strand
T2 sequence: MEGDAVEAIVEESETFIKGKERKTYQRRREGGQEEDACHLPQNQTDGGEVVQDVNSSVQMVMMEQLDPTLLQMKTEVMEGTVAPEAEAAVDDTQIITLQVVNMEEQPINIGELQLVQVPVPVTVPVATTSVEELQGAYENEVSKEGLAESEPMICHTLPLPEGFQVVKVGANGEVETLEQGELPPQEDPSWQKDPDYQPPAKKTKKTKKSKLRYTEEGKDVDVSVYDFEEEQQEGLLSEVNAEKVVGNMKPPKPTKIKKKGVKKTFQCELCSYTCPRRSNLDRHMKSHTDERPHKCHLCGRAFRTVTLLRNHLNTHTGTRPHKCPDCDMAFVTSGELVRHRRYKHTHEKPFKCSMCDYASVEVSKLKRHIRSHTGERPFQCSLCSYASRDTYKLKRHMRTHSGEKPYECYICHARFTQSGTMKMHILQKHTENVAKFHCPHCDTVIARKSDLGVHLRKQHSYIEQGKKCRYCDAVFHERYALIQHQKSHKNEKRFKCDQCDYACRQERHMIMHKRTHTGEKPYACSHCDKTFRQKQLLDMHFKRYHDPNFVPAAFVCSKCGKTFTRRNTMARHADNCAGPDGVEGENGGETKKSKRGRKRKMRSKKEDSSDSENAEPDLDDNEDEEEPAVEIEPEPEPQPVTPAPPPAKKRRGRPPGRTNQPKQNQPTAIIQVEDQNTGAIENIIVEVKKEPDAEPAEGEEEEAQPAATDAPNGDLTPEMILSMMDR

Binder | Kd [nM]
B2 | ~200
B14 | ~200
B16 | ~5

target: T1, CTCF ZF1-11; assay: as above; settings: protein: recombinant; tags: 6xHis-SUMO, used tagged and untagged (no change in results); label: FAM on motif strand

Binder | binding signal [fold lower affinity vs N3]
B19 | ~2
B20 | ~2

target: T1, CTCF ZF1-11; assay: as above; settings: protein: recombinant; tags: 6xHis-SUMO, used tagged and untagged (no change in results); label: FAM on motif strand; remark: another data set of the same source

Binder | binding signal [fold lower affinity vs N2]
B21 | ~4
B22 | ~4
